{"source": "patent US20210364527A1", "about": "(QUANTUM SI, published 2021)", "binders": {"B1": {"name": "PS424 (other)", "chain": "MSVETIEKRSTTRKLAPQYRVLLHNDDYNSMEYVVQVLMTSVPSITQPQAVNIMMEAHNSGLALVITCAQEHAEFYCETLKGHGLSSTIEPD"}, "B2": {"name": "PS404 (other)", "chain": "MPVSVTAPQTKTKTKPKVERPKLYKVILVNDDFTPREFVVRVLKAEFRMSEDQAAKVMMTAHQRGVCVVAVFTRDVAETKATRATDAGRAKGYPLLFTTEPEE"}, "B3": {"name": "PS390 (other)", "chain": "MLSIAAVTEAPSKGVQTADPKTVRKPYPNYKVIVLNDDFNTFQHVSSCLLKYIPGMSEARAWELTNQVHFEGLAVVWVGPQEQAELYYAQLKNAGLTMAPPEPA"}, "B4": {"name": "PS397 (other)", "chain": "MSDNEVAPKRKTRVKPKLERPRLYKVILVNDDYTPRDFVVMVLKAIFRMSEEAGYRVMMTAHKLGTSVVVVCARDIAETKAKEATDLGKEAGFPLMFTTEPEE"}, "B5": {"name": "PS398 (other)", "chain": "MPLKAQNRSIVGRRDEWPPPTTQSSSETKSESKRVSDTGADTKRKTKTVPKVEKPRLYKVILVNDDYTPREFVLVVLKAVFRMSEDQGYKVMITAHQKGSCVVAVYTRDIAETKAKEAVDLAKEIGFPLMFRTEPEE"}, "B6": {"name": "PS389 (other)", "chain": "MLNSAAFKAASASPVIAPERSGQVTQKPYPTYKVIVLNDDFNTFQHVHDCLVKYIPGMTSDRAWQLTHQVHNDGQAIVWVGPQEQAELYHQQLSRAGLTMAPIEAA"}, "B7": {"name": "PS423 (other)", "chain": "MAPTPAGAAVLDKQQQRRHKHASRYRVLLHNDPVNTMEYVVESLRQVVPQLSEQDAIAVMVEAHNTGVGLVIVCDIEPAEFYCEQLKTKGLTSSIEPED"}, "B8": {"name": "PS388 (other)", "chain": "MVTTLSADVYGMATAPTVAPERSNQVVRKTYPNYKVIVLNDDFNTFQHVAECLMKYIPGMSSDRAWDLTNQVHYEGQAIVWVGPQEPAELYHQQLRRAGLTMAPLEAA"}, "B9": {"name": "PS392 (other)", "chain": "MSVEIIEKRSTVRKLAPRYRVLLHNDDFNPMEYVVQTLMATVPSLTQPQAVNVMMEAHTNGMGLVIVCALEHAEFYAETLNNHGLGSSIEPDD"}, "B10": {"name": "PS374 (other)", "chain": "MRWEDPLAAEPVTPGVAPVVEEETDAAVETPWRVILYDDDIHTFEEVILQLMKATGCTPEQGERHAWTVHTRGKDCVYQGDFFDCFRVQGVLREIQLVTEIEG"}, "B11": {"name": "PS414 (other)", "chain": "MQAAGNEPPDPQNPGDVGNGGDGGNQDGSNTGVVVKTRTRTRKPAMYKVLMLNDDYTPMEFVVHVLERFFQKNREEATRIMLHVHRRGVGVCGVYTYEVAETKVTQVMDLARQNQHPLQCTIEKE"}, "B12": {"name": "PS568 (other)", "chain": "MTTPSLPTRETEVEERTEVEPERLYHLVLLDDDQHSYQYVIEMLASIFGYGSEKAWTLARIVDTEGRAILETASHAQCERHQSQIHAYGADSRIPTSVGSMSAVIEEAGTPPQT"}, "B13": {"name": "PS560 (other)", "chain": "MTETITTPAERTQTQAEPRSDRAWLWNVVLLDDDEHTYEYVIRMLHTLFGMPVERAFRLAEEVDARGRAVVLTTHKEHAELKRDQVHAFGKDALIASCAGSMSAVLEPAECGSDDED"}, "B14": {"name": "PS565 (other)", "chain": "MSEFDHEHSGDTSVADPIVTTKTAPKPQKHAENETETRRQPPYNVIILNDEEHTFDYVIELLCKVFRHSLATAQELTWRIHLTGRAVVLTTHKELAELKRDQVLAYGPDPRMSVSKGPLDCFIEPAPGG"}, "B15": {"name": "PS576 (other)", "chain": "MASTQTPDLNEITEESTKSTGGPWRVVLWDDNEHTYEYVIEMLVEICMMTVEKAFLHAVQVDKEKRTVDFSGELEHAEHVQERILNYGADPRMSNSKGSMSATLER"}, "B16": {"name": "PS555 (other)", "chain": "MADSAQTGVAEPIQETLRRRKLRDDRRPKRQPPYHVILWNDNDHTYAYVVVMLMQLFGYPAEKGYQLASEVDTQGRAVVLTTTKEHAELKRDQIHAYGKDGLIEKCKGSMWATIEPAPGE"}, "B17": {"name": "PS554 (other)", "chain": "MSDSASATVEVQADPPADATARSQPTPARSTGSKPKRQPRYHVVLWNDDDHTYEYVIAMLRRLFGIEPEKGFRIAEEVDQSGRAVVLTTTREHAELKRDQIHAFGADRLLARSKGSMSASIEPEA"}, "B18": {"name": "PS571 (other)", "chain": "MTSSGASQPSILEETERKPRLSDGPWKVVLWDDDFHTYEYVIEMLMDVCQMPWEKAFQHAVEVDTRKKTIVFFGELEHAEFVHERILNYGPDPRMGTSKGSMTATLEK"}, "B19": {"name": "PS566 (other)", "chain": "MSSPSSLDDVQVSTSRAKPANETRTRKQPPYAVIVENDDHHTFLYVIEALMKVCGHAPEKGFVLAQQIHTQGKAMVWSGTLELAELKRDQLRGFGPDNYAPRPVTFPLGVTIEPLP"}, "B20": {"name": "PS559 (other)", "chain": "MNQAAISPNPDIKPNPSTHKKRASQRQPRYHVILWNDNDHTYHYVVTMLQKLFGHPPRTGIKMATEVDKKGKVIVLTTSREHAELKRDQIHAFGADKLIRRSKGAMAASIEPES"}, "B21": {"name": "PS553 (other)", "chain": "MPASASAVTEPPVSLPEAAAPRPKDRPKRQPRYHVILWNDDDHTYQYVVAMLRQLFGHPPEKGFTLAKQVDKDGRVVVLTTTKEHAELKRDQIHAFGADRLLARSKGSMSASIEPEASTG"}, "B22": {"name": "PS569 (other)", "chain": "MYSKNQIKIYCSEDDKGQTATPLLEKKPKFAPLYHVILWDDNTHTYEYVIKLLMSLFRMTFEKAYQHTLEVDKKGRTICITTHLEKAELKQEQISNFGPDILMQNSKGPMSATIEPAN"}, "B23": {"name": "PS547 (other)", "chain": "MGFPTDFRQSIEISTPLGSQQPRFSNASSEPALADPVLVINPRIQPRYHVILLNDDDHTYRYVIEMMLIVFGHPPEKGFLIAKEVDKAGRAICLTTSLEHAEFKQEQVHAYGADPYFGPKCKGSMTAVLEPAE"}}, "data": [{"target": "T1, LA peptide LAKLDEESILKQK (XAKLDEESILKQK, X = L)", "T1 construct": "Immobilized on the biolayer interferometry sensor", "T1 peptide": "LAKLDEESILKQK", "experiment": "BLI heatmap", "values": [{"binder": "B1", "binding result": "no binding"}, {"binder": "B2", "binding result": "no binding"}, {"binder": "B3", "binding result": "binds"}, {"binder": "B4", "binding result": "no binding"}, {"binder": "B5", "binding result": "no binding"}, {"binder": "B6", "binding result": "binds"}, {"binder": "B7", "binding result": "no binding"}, {"binder": "B8", "binding result": "binds"}, {"binder": "B9", "binding result": "no binding"}]}, {"target": "T2, IA peptide IAKLDEESILKQK (XAKLDEESILKQK, X = I)", "T2 construct": "Immobilized on the biolayer interferometry sensor", "T2 peptide": "IAKLDEESILKQK", "experiment": "BLI heatmap", "values": [{"binder": "B10", "binding result": "no binding"}, {"binder": "B1", "binding result": "no binding"}, {"binder": "B2", "binding result": "no binding"}, {"binder": "B3", "binding result": "no binding"}, {"binder": "B4", "binding result": "no binding"}, {"binder": "B5", "binding result": "no binding"}, {"binder": "B6", "binding result": "no binding"}, {"binder": "B7", "binding result": "no binding"}, {"binder": "B8", "binding result": "no binding"}, {"binder": "B11", "binding result": "no binding"}, {"binder": "B9", "binding result": "no binding"}]}, {"target": "T3, VA peptide VAKLDEESILKQK (XAKLDEESILKQK, X = V)", "T3 construct": "Immobilized on the biolayer interferometry sensor", "T3 peptide": "VAKLDEESILKQK", "experiment": "BLI heatmap", "values": [{"binder": "B10", "binding result": "no binding"}, {"binder": "B1", "binding result": "no binding"}, {"binder": "B2", "binding result": "no binding"}, {"binder": "B3", "binding result": "no binding"}, {"binder": "B4", "binding result": "no binding"}, {"binder": "B5", "binding result": "no binding"}, {"binder": "B6", "binding result": "no binding"}, {"binder": "B7", "binding result": "no binding"}, {"binder": "B8", "binding result": "no binding"}, {"binder": "B11", "binding result": "no binding"}, {"binder": "B9", "binding result": "no binding"}]}, {"target": "T4, F peptide FAKLDEESILKQK (XAKLDEESILKQK, X = F)", "T4 construct": "Immobilized on the biolayer interferometry sensor", "T4 peptide": "FAKLDEESILKQK", "experiment": "BLI heatmap", "values": [{"binder": "B10", "binding result": "binds"}, {"binder": "B1", "binding result": "binds"}, {"binder": "B2", "binding result": "binds"}, {"binder": "B3", "binding result": "binds"}, {"binder": "B4", "binding result": "binds"}, {"binder": "B5", "binding result": "binds"}, {"binder": "B7", "binding result": "binds"}, {"binder": "B11", "binding result": "binds"}, {"binder": "B9", "binding result": "binds"}]}, {"target": "T5, W peptide WAKLDEESILKQK (XAKLDEESILKQK, X = W)", "T5 construct": "Immobilized on the biolayer interferometry sensor", "T5 peptide": "WAKLDEESILKQK", "experiment": "BLI heatmap", "values": [{"binder": "B10", "binding result": "binds"}, {"binder": "B1", "binding result": "binds"}, {"binder": "B2", "binding result": "binds"}, {"binder": "B3", "binding result": "no binding"}, {"binder": "B4", "binding result": "binds"}, {"binder": "B5", "binding result": "binds"}, {"binder": "B6", "binding result": "no binding"}, {"binder": "B7", "binding result": "binds"}, {"binder": "B8", "binding result": "no binding"}, {"binder": "B11", "binding result": "binds"}]}, {"target": "T1, LA peptide LAKLDEESILKQK …", "experiment": "BLI heatmap", "remark": "another data set of the same source", "values": [{"binder": "B12", "binding result": "binds"}, {"binder": "B13", "binding result": "binds"}, {"binder": "B14", "binding result": "binds"}, {"binder": "B15", "binding result": "no binding"}, {"binder": "B16", "binding result": "binds"}, {"binder": "B17", "binding result": "binds"}, {"binder": "B18", "binding result": "binds"}, {"binder": "B19", "binding result": "binds"}, {"binder": "B20", "binding result": "binds"}, {"binder": "B21", "binding result": "binds"}]}, {"target": "T2, IA peptide IAKLDEESILKQK …", "experiment": "BLI heatmap", "remark": "another data set of the same source", "values": [{"binder": "B12", "binding result": "binds"}, {"binder": "B13", "binding result": "binds"}, {"binder": "B14", "binding result": "binds"}, {"binder": "B15", "binding result": "no binding"}, {"binder": "B16", "binding result": "binds"}, {"binder": "B17", "binding result": "binds"}, {"binder": "B18", "binding result": "binds"}, {"binder": "B19", "binding result": "binds"}, {"binder": "B22", "binding result": "no binding"}, {"binder": "B20", "binding result": "binds"}, {"binder": "B21", "binding result": "binds"}]}, {"target": "T3, VA peptide VAKLDEESILKQK …", "experiment": "BLI heatmap", "remark": "another data set of the same source", "values": [{"binder": "B12", "binding result": "binds"}, {"binder": "B15", "binding result": "no binding"}, {"binder": "B16", "binding result": "no binding"}, {"binder": "B17", "binding result": "binds"}, {"binder": "B18", "binding result": "binds"}, {"binder": "B23", "binding result": "no binding"}, {"binder": "B22", "binding result": "no binding"}, {"binder": "B20", "binding result": "binds"}, {"binder": "B21", "binding result": "binds"}]}, {"target": "T4, F peptide FAKLDEESILKQK (XAKLDEESILKQK, …)", "experiment": "BLI heatmap", "remark": "another data set of the same source", "values": [{"binder": "B13", "binding result": "no binding"}, {"binder": "B14", "binding result": "binds"}, {"binder": "B15", "binding result": "no binding"}, {"binder": "B17", "binding result": "no binding"}, {"binder": "B18", "binding result": "no binding"}, {"binder": "B23", "binding result": "no binding"}, {"binder": "B19", "binding result": "binds"}, {"binder": "B22", "binding result": "no binding"}, {"binder": "B21", "binding result": "no binding"}]}]}
